According to PMC10873205 (Nature Structural & Molecular Biology, 2024):
Numbering of substitutions follows the chain as printed. Names may count otherwise. Blank lines part the entries; values can stand above or below the binder they belong to.

Key:
UBE2A [1] = target: T1, UBE2A (UniProt P49459 1-152); experiment: ITC; UBR4 construct in the cell (74 μM), UBE2A in the syringe at tenfold higher concentration; 25 °C; 0.4 µl then 13 injections of 3 µl; UBE2A into buffer subtracted; single site binding model; settings: both partners purified
T1 construct: also called UBE2A WT; source: E. coli BL21(DE3), purified (glutathione Sepharose 4B or Ni-NTA, SEC); not shown: GST (from the vector pGEX6P-3), N-terminal, cleaved

UBE2A [2] = target: UBE2A (UniProt P49459 1-152); experiment: as above; settings: both partners purified

- Kd (UBE2A [1]): 1.19 µM
B1: UBR4_(xtal) (UBR4 residues 4,730–5,183) (domain or fragment)
chain: AIQHPGTQVLIGTDSIPNLHKLEQVSSDEGIGTLAENLLEALREHPDVNKKIDAARRETRAEKKRMAMAMRQKALGTLGMTTNEKGQVVTKTALLKQMEELIEEPGLTCCICREGYKFQPTKVLGIYTFTKRVALEEMENKPRKQQGYSTVSHFNIVHYDCHLAAVRLARGREEWESAALQNANTKCNGLLPVWGPHVPESAFATCLARHNTYLQECTGQREPTYQLNIHDIKLLFLRFAMEQSFSADTGGGGRESNIHLIPYIIHTVLYVLNTTRATSREEKNLQGFLEQPKEKWVESAFEVDGPYYFTVLALHILPPEQWRATRVEILRRLLVTSQARAVAPGGATRLTDKAVKDYSAYRSSLLFWALVDLIYNMFKKVPTSNTEGGWSCSLAEYIRHNDMPIYEAADKALKTFQEEFMPVETFSEFLDVAGLLSEITDPESFLKDLLNSVP
notes: UBR4, human, residues 4,730–5,183 (runs to the native C-terminus); holds the unresolved N-terminal region, the hemiRING zinc finger and the UZI subdomain; The GST tag is said to be cleaved for crystallization and autoubiquitination assays; Cloning strategy is in Supplementary Data 1; also called UBR4_(4730–5183); hemiRING-UZI module construct; source: E. coli BL21(DE3), purified (glutathione …)

- binding result (UBE2A [1]): binds
B2: UBR4_(xtal) Ser4930Arg (domain or fragment)
chain: B1 chain with S201R
notes: also called UBR4 Ser4930Arg; S4930R; source: E. coli BL21(DE3), purified (glutathione sepharose 4B, SEC)

- Kd (UBE2A [2]): 89.8 µM
B3: UBR4_(4828–5183) (domain or fragment)
chain: EELIEEPGLTCCICREGYKFQPTKVLGIYTFTKRVALEEMENKPRKQQGYSTVSHFNIVHYDCHLAAVRLARGREEWESAALQNANTKCNGLLPVWGPHVPESAFATCLARHNTYLQECTGQREPTYQLNIHDIKLLFLRFAMEQSFSADTGGGGRESNIHLIPYIIHTVLYVLNTTRATSREEKNLQGFLEQPKEKWVESAFEVDGPYYFTVLALHILPPEQWRATRVEILRRLLVTSQARAVAPGGATRLTDKAVKDYSAYRSSLLFWALVDLIYNMFKKVPTSNTEGGWSCSLAEYIRHNDMPIYEAADKALKTFQEEFMPVETFSEFLDVAGLLSEITDPESFLKDLLNSVP
modifications: one Zn2+ bound (Cys4838, Cys4841, His4887, Cys4890). The C-terminal limit 5183 is taken from the Fig. 7 title and legend and the structure section; '4828-5130' in the ITC text is treated as a …
